Reference: paper PMC9242541, “Importance of Rare DPYD Genetic Polymorphisms for 5-Fluorouracil Therapy in the Japanese Population” (Frontiers in Pharmacology, 2022)
Positions count from the first letter of the chain named. Names and notes keep the numbering of the source.

B1: DPD variant F438V (enzyme, human, UniProt Q12882 4-1025, looked up)
chain: VLSKDSADIESILALNPRTQTHATLCSTSAKKLDKKHWKRNPDKNCFNCEKLENNFDDIKHTTLGERGALREAMRCLKCADAPCQKSCPTNLDIKSFITSIANKNYYGAAKMIFSDNPLGLTCGMVCPTSDLCVGGCNLYATEEGPINIGGLQQFATEVFKAMSIPQIRNPSLPPPEKMSEAYSAKIALFGAGPASISCASFLARLGYSDITIFEKQEYVGGLSTSEIPQFRLPYDVVNFEIELMKDLGVKIICGKSLSVNEMTLSTLKEKGYKAAFIGIGLPEPNKDAIFQGLTQDQGFYTSKDFLPLVAKGSKAGMCACHSPLPSIRGVVIVLGAGDTAFDCATSALRCGARRVFIVFRKGFVNIRAVPEEMELAKEEKCEFLPFLSPRKVIVKGGRIVAMQFVRTEQDETGKWNEDEDQMVHLKADVVISAVGSVLSDPKVKEALSPIKFNRWGLPEVDPETMQTSEAWVFAGGDVVGLANTTVESVNDGKQASWYIHKYVQSQYGASVSAKPELPLFYTPIDLVDISVEMAGLKFINPFGLASATPATSTSMIRRAFEAGWGFALTKTFSLDKDIVTNVSPRIIRGTTSGPMYGPGQSSFLNIELISEKTAAYWCQSVTELKADFPDNIVIASIMCSYNKNDWTELAKKSEDSGADALELNLSCPHGMGERGMGLACGQDPELVRNICRWVRQAVQIPFFAKLTPNVTDIVSIARAAKEGGANGVTATNTVSGLMGLKSDGTPWPAVGIAKRTTYGGVSGTAIRPIALRAVTSIARALPGFPILATGGIDSAESGLQFLHSGASVLQVCSAIQNQDFTVIEDYCTGLKALLYLKSIEELQDWDGQSPATVSHQKGKPVPRIAELMDKKLPSFGPYLEQRKKIIAENKIRLKEQNVAFSPLKRNCFIPKRPIPTIKDVIGKALQYLGTFGELSNVEQVVAMIDEEMCINCGKCYMTCNDSGYQAIQFDPETHLPTITDTCTGCTLCLSVCPIVDCIKMVSRTTPYEPKRGVPLSVNPVC
notes: dihydropyrimidine dehydrogenase (DPD), human, DPYD cDNA with a variant found in Japanese individuals; made by site-directed mutagenesis of the wild-type construct; also called 1312T > G; source: 293FT cells, transfected (pcDNA3.4), soluble fraction
B2: DPD risk variant I560S (DPYD*13) (enzyme, human, UniProt Q12882 4-1025, looked up)
chain: B1 chain with V435F, I557S
notes: dihydropyrimidine dehydrogenase (DPD), human, DPYD cDNA with a risk variant reported in Caucasians; made by site-directed mutagenesis of the wild-type construct; also called c.1679T>G; 1679T > G (*13); source: 293FT cells, transfected (pcDNA3.4), soluble fraction
B3: DPD variant I560V (enzyme, human, UniProt Q12882 4-1025, looked up)
chain: B1 chain with V435F, I557V
notes: dihydropyrimidine dehydrogenase (DPD), human, DPYD cDNA with a variant found in Japanese individuals; made by site-directed mutagenesis of the wild-type construct; also called 1678A > G; source: 293FT cells, transfected (pcDNA3.4), soluble fraction
B4: DPD variant M166V (enzyme, human, UniProt Q12882 4-1025, looked up)
chain: B1 chain with M163V, V435F
notes: dihydropyrimidine dehydrogenase (DPD), human, DPYD cDNA with a variant found in Japanese individuals; made by site-directed mutagenesis of the wild-type construct; also called 496A > G; source: 293FT cells, transfected (pcDNA3.4), soluble fraction
B5: DPD variant F524L (enzyme, human, UniProt Q12882 4-1025, looked up)
chain: B1 chain with V435F, F521L
notes: dihydropyrimidine dehydrogenase (DPD), human, DPYD cDNA with a variant found in Japanese individuals; made by site-directed mutagenesis of the wild-type construct; also called 1572T > G; source: 293FT cells, transfected (pcDNA3.4), soluble fraction
B6: DPD variant I528V (enzyme, human, UniProt Q12882 4-1025, looked up)
chain: B1 chain with V435F, I525V
notes: dihydropyrimidine dehydrogenase (DPD), human, DPYD cDNA with a variant found in Japanese individuals; made by site-directed mutagenesis of the wild-type construct; also called 1582A > G; source: 293FT cells, transfected (pcDNA3.4), soluble fraction
B7: DPD variant T990I (enzyme, human, UniProt Q12882 4-1025, looked up)
chain: B1 chain with V435F, T987I
notes: dihydropyrimidine dehydrogenase (DPD), human, DPYD cDNA with a variant found in Japanese individuals; made by site-directed mutagenesis of the wild-type construct; also called 2969C > T; source: 293FT cells, transfected (pcDNA3.4), soluble fraction
B8: DPD variant A380V (enzyme, human, UniProt Q12882 4-1025, looked up)
chain: B1 chain with A377V, V435F
notes: dihydropyrimidine dehydrogenase (DPD), human, DPYD cDNA with a variant found in Japanese individuals; made by site-directed mutagenesis of the wild-type construct; also called 1139C > T; source: 293FT cells, transfected (pcDNA3.4), soluble fraction
B9: DPD variant C354Y (enzyme, human, UniProt Q12882 4-1025, looked up)
chain: B1 chain with C351Y, V435F
notes: dihydropyrimidine dehydrogenase (DPD), human, DPYD cDNA with a variant found in Japanese individuals; made by site-directed mutagenesis of the wild-type construct; also called 1061G > A; source: 293FT cells, transfected (pcDNA3.4), soluble fraction
B10: DPD variant C29R (enzyme, human, UniProt Q12882 4-1025, looked up)
chain: B1 chain with C26R, V435F
notes: dihydropyrimidine dehydrogenase (DPD), human, DPYD cDNA with a variant found in Japanese individuals; made by site-directed mutagenesis of the wild-type construct; also called 85T > C (*9A, *9B); source: 293FT cells, transfected (pcDNA3.4), soluble fraction
B11: DPD variant Y304H (enzyme, human, UniProt Q12882 4-1025, looked up)
chain: B1 chain with Y301H, V435F
notes: dihydropyrimidine dehydrogenase (DPD), human, DPYD cDNA with a variant found in Japanese individuals; made by site-directed mutagenesis of the wild-type construct; also called 910T > C; source: 293FT cells, transfected (pcDNA3.4), soluble fraction
B12: DPD variant V732I (enzyme, human, UniProt Q12882 4-1025, looked up)
chain: B1 chain with V435F, V729I
notes: dihydropyrimidine dehydrogenase (DPD), human, DPYD cDNA with a variant found in Japanese individuals; made by site-directed mutagenesis of the wild-type construct; also called 2194G > A (*6); source: 293FT cells, transfected (pcDNA3.4), soluble fraction
B13: DPD variant N893S (enzyme, human, UniProt Q12882 4-1025, looked up)
chain: B1 chain with V435F, N890S
notes: dihydropyrimidine dehydrogenase (DPD), human, DPYD cDNA with a variant found in Japanese individuals; made by site-directed mutagenesis of the wild-type construct; also called 2678A > G; source: 293FT cells, transfected (pcDNA3.4), soluble fraction
B14: DPD variant R886H (enzyme, human, UniProt Q12882 4-1025, looked up)
chain: B1 chain with V435F, R883H
notes: dihydropyrimidine dehydrogenase (DPD), human, DPYD cDNA with a variant found in Japanese individuals; made by site-directed mutagenesis of the wild-type construct; also called 2657G > A (*9B); source: 293FT cells, transfected (pcDNA3.4), soluble fraction
B15: DPD variant V434L (enzyme, human, UniProt Q12882 4-1025, looked up)
chain: B1 chain with V431L, V435F
notes: dihydropyrimidine dehydrogenase (DPD), human, DPYD cDNA with a variant found in Japanese individuals; made by site-directed mutagenesis of the wild-type construct; also called 1300G > C; source: 293FT cells, transfected (pcDNA3.4), soluble fraction
B16: DPD variant R353C (enzyme, human, UniProt Q12882 4-1025, looked up)
chain: B1 chain with R350C, V435F
notes: dihydropyrimidine dehydrogenase (DPD), human, DPYD cDNA with a variant found in Japanese individuals; made by site-directed mutagenesis of the wild-type construct; expression after SDS-PAGE was below the lower limit of quantification; also called 1057C > T; source: 293FT cells, transfected (pcDNA3.4), soluble fraction
B17: DPD variant V335M (enzyme, human, UniProt Q12882 4-1025, looked up)
chain: B1 chain with V332M, V435F
notes: dihydropyrimidine dehydrogenase (DPD), human, DPYD cDNA with a variant found in Japanese individuals; made by site-directed mutagenesis of the wild-type construct; also called 1003G > A; source: 293FT cells, transfected (pcDNA3.4), soluble fraction
B18: DPD variant I543V (enzyme, human, UniProt Q12882 4-1025, looked up)
chain: B1 chain with V435F, I540V
notes: dihydropyrimidine dehydrogenase (DPD), human, DPYD cDNA with a variant found in Japanese individuals; made by site-directed mutagenesis of the wild-type construct; also called 1627A > G (*5); source: 293FT cells, transfected (pcDNA3.4), soluble fraction
B19: DPD variant M321I (enzyme, human, UniProt Q12882 4-1025, looked up)
chain: B1 chain with M318I, V435F
notes: dihydropyrimidine dehydrogenase (DPD), human, DPYD cDNA with a variant found in Japanese individuals; made by site-directed mutagenesis of the wild-type construct; also called 963G > A; source: 293FT cells, transfected (pcDNA3.4), soluble fraction
B20: DPD variant H25R (enzyme, human, UniProt Q12882 4-1025, looked up)
chain: B1 chain with H22R, V435F
notes: dihydropyrimidine dehydrogenase (DPD), human, DPYD cDNA with a variant found in Japanese individuals; made by site-directed mutagenesis of the wild-type construct; also called 74A > G; source: 293FT cells, transfected (pcDNA3.4), soluble fraction
B21: DPD variant Q604L (enzyme, human, UniProt Q12882 4-1025, looked up)
chain: B1 chain with V435F, Q601L
notes: dihydropyrimidine dehydrogenase (DPD), human, DPYD cDNA with a variant found in Japanese individuals; made by site-directed mutagenesis of the wild-type construct; also called 1811A > T; source: 293FT cells, transfected (pcDNA3.4), soluble fraction
B22: DPD variant D291N (enzyme, human, UniProt Q12882 4-1025, looked up)
chain: B1 chain with D288N, V435F
notes: dihydropyrimidine dehydrogenase (DPD), human, DPYD cDNA with a variant found in Japanese individuals; made by site-directed mutagenesis of the wild-type construct; also called 871G > A; source: 293FT cells, transfected (pcDNA3.4), soluble fraction

Biological target: the molecule itself
Assay: native gel or EMSA; blue native PAGE (Tris-glycine buffer, 5%-20% polyacrylamide gels), 9 μg of the soluble fraction of transfected 293FT cells per lane, immunoblot with polyclonal anti-human DPD antibody; monomer to dimer

| Protein | stoichiometry N |
| --- | --- |
| B1 | 2 |
| B2 | 2 |
| B3 | 2 |
| B4 | 2 |
| B5 | 2 |
| B6 | 2 |
| B7 | 2 |
| B8 | 2 |
| B9 | 2 |
| B10 | 2 |
| B11 | 2 |
| B12 | 2 |
| B13 | 2 |
| B14 | 2 |
| B15 | 2 |
| B16 | 2 |
| B17 | 2 |
| B18 | 2 |
| B19 | 2 |
| B20 | 2 |
| B21 | 2 |
| B22 | 2 |
